Reference: patent US20200079833A1 (AstraZeneca / MedImmune, published 2020)
Starred links: 1 amine or outer side, 2 acyl side, 3 side chain; linkers in the order of their positions; H or OH if unused. Non-standard residues stand in square brackets, D forms with d. Groups on a side chain read outwards from the residue. Primed or numbered codes have the meaning given here. No end group written: not given here. *: point of attachment. γGlu = O=C(O)[C@H](CCC(=O)[*:2])N[*:1]; Stearoyl = CCCCCCCCCCCCCCCCCC(=O)*; αMeF = C[C@](N)(Cc1ccccc1)C(=O)O; αMeK = C[C@](N)(CCCCN)C(=O)O; αMeS = C[C@](N)(CO)C(=O)O; PEG2′ = not defined here; Aib = CC(C)(N)C(=O)O

Experiments:
Experiment in all cases: cell-based or functional assay
glucagon receptor (GCGR) = glucagon receptor (GCGR) (human, UniProt P47871 26-477)
glucagon receptor (GCGR), sequence (P47871 26-477): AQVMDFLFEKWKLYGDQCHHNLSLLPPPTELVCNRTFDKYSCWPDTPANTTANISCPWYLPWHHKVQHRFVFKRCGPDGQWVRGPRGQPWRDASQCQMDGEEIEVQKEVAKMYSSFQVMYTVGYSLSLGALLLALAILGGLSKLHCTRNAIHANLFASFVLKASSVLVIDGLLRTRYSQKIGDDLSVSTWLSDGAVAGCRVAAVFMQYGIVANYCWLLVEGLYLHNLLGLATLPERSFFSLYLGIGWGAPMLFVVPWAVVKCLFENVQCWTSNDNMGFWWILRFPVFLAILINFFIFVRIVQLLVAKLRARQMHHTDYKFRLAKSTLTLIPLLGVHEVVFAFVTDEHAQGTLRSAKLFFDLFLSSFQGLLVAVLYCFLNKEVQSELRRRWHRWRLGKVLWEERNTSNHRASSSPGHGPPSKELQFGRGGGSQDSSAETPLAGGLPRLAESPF

[1] = biological target: T1, glucose-dependent insulinotropic peptide (gastric inhibitory polypeptide) receptor (GIPR) (human, UniProt P48546 22-466)
T1 sequence (looked up): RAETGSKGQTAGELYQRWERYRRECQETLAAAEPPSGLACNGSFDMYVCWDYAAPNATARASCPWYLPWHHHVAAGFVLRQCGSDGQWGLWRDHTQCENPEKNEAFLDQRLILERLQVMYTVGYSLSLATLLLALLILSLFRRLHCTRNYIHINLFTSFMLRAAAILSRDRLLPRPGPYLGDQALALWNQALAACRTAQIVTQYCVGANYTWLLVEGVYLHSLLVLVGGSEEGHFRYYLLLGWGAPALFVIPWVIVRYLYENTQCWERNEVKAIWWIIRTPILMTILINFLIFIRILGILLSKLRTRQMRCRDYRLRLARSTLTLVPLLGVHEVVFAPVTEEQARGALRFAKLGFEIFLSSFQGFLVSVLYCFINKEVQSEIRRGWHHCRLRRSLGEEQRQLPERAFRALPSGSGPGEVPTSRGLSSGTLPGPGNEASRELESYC

GLP-1 receptor (GLP-1R) = GLP-1 receptor (GLP-1R) (human, UniProt P43220 24-463)

Binder	cAMP Primary assay EC50 Gluc-R (glucagon receptor (GCGR))	cAMP Primary assay EC50 Gluc-R (2nd) (glucagon receptor (GCGR))	cAMP Primary assay EC50 GIP-R [1]	cAMP Primary assay EC50 GIP-R (2nd) [1]	cAMP Mean pM GLP-1R (GLP-1 receptor (GLP-1R))	cAMP Primary assay EC50 GLP-1R n1 (GLP-1 receptor (GLP-1R))	cAMP Primary assay EC50 GLP-1R n2 (GLP-1 receptor (GLP-1R))
H[Aib]EK([PEG2′-PEG2′-γGlu-Stearoyl])S[αMeF]TSDV[αMeS]S[αMeF]LEGEAA[αMeK]E[αMeF]IA[αMeF]VV[αMeK]GG-NH2 [SEQ ID NO 125]	25 nM	24.9 nM	25 nM	24.9 nM	24900 pM	25 nM	24.9 nM
H[Aib]EGS[αMeF]TSDV[αMeS]S[αMeF]LEGEK([PEG2′-PEG2′-γGlu-Stearoyl])A[αMeK]E[αMeF]IA[αMeF]VV[αMeK]GG-NH2 [SEQ ID NO 111]	25 nM	25 nM	25 nM	25 nM	17 pM	0.018 nM	0.0164 nM
H[Aib]EGS[αMeF]TSDV[αMeS]S[αMeF]LK([PEG2′-PEG2′-γGlu-Stearoyl])GEAA[αMeK]E[αMeF]IA[αMeF]VV[αMeK]GG-NH2 [SEQ ID NO 114]	25 nM	25.4 nM	25 nM	25.4 nM	503 pM	0.55 nM	0.458 nM
H[Aib]EGS[αMeF]TSK([PEG2′-PEG2′-γGlu-Stearoyl])V[αMeS]S[αMeF]LEGEAA[αMeK]E[αMeF]IA[αMeF]VV[αMeK]GG-NH2 [SEQ ID NO 120]	25 nM	25.3 nM	25 nM	25.3 nM	3640 pM	4.1 nM	3.13 nM
H[Aib]EGK([PEG2′-PEG2′-γGlu-Stearoyl])[αMeF]TSDV[αMeS]S[αMeF]LEGEAA[αMeK]E[αMeF]IA[αMeF]VV[αMeK]GG-NH2 [SEQ ID NO 124]	25 nM	25.1 nM	25 nM	25.1 nM	25100 pM	25 nM	25.1 nM
H[Aib]EGSK([PEG2′-PEG2′-γGlu-Stearoyl])TSDV[αMeS]S[αMeF]LEGEAA[αMeK]E[αMeF]IA[αMeF]VV[αMeK]GG-NH2 [SEQ ID NO 123]	26 nM	25.6 nM	26 nM	25.6 nM	4660 pM	4.9 nM	4.43 nM
H[Aib]EGS[αMeF]K([PEG2′-PEG2′-γGlu-Stearoyl])SDV[αMeS]S[αMeF]LEGEAA[αMeK]E[αMeF]IA[αMeF]VV[αMeK]GG-NH2 [SEQ ID NO 122]	25 nM	25.2 nM	25 nM	25.2 nM	25200 pM	25 nM	25.2 nM
H[Aib]EGS[αMeF]TSDV[αMeS]K([PEG2′-PEG2′-γGlu-Stearoyl])[αMeF]LEGEAA[αMeK]E[αMeF]IA[αMeF]VV[αMeK]GG-NH2 [SEQ ID NO 117]	25 nM	25.1 nM	25 nM	25.1 nM	25 pM	0.026 nM	0.0244 nM
H[Aib]EGS[αMeF]TSDVK([PEG2′-PEG2′-γGlu-Stearoyl])S[αMeF]LEGEAA[αMeK]E[αMeF]IA[αMeF]VV[αMeK]GG-NH2 [SEQ ID NO 118]	25 nM	25.2 nM	25 nM	25.2 nM	783 pM	0.81 nM	0.758 nM
H[Aib]EGS[αMeF]TSDV[αMeS]S[αMeF]LEGK([PEG2′-PEG2′-γGlu-Stearoyl])AA[αMeK]E[αMeF]IA[αMeF]VV[αMeK]GG-NH2 [SEQ ID NO 112]	25 nM	25.4 nM	25 nM	25.4 nM	6 pM	0.0061 nM	0.00507 nM
H[Aib]EGS[αMeF]TSDV[αMeS]S[αMeF]LEGEAK([PEG2′-PEG2′-γGlu-Stearoyl])[αMeK]E[αMeF]IA[αMeF]VV[αMeK]GG-NH2 [SEQ ID NO 110]	25 nM	25 nM	25 nM	25 nM	62 pM	0.06 nM	0.0639 nM
H[Aib]EGS[αMeF]TSDK([PEG2′-PEG2′-γGlu-Stearoyl])[αMeS]S[αMeF]LEGEAA[αMeK]E[αMeF]IA[αMeF]VV[αMeK]GG-NH2 [SEQ ID NO 119]	25 nM	25.2 nM	25 nM	25.2 nM	17 pM	0.018 nM	0.0157 nM
H[Aib]EGS[αMeF]TSDV[αMeS]S[αMeF]LEK([PEG2′-PEG2′-γGlu-Stearoyl])EAA[αMeK]E[αMeF]IA[αMeF]VV[αMeK]GG-NH2 [SEQ ID NO 113]	25 nM	24.9 nM	25 nM	24.9 nM	18 pM	0.018 nM	0.0174 nM
H[Aib]EGS[αMeF]TSDV[αMeS]S[αMeF]K([PEG2′-PEG2′-γGlu-Stearoyl])EGEAA[αMeK]E[αMeF]IA[αMeF]VV[αMeK]GG-NH2 [SEQ ID NO 115]	25 nM	25.3 nM	25 nM	25.3 nM	6 pM	0.006 nM	0.00539 nM
H[Aib]EGS[αMeF]TK([PEG2′-PEG2′-γGlu-Stearoyl])DV[αMeS]S[αMeF]LEGEAA[αMeK]E[αMeF]IA[αMeF]VV[αMeK]GG-NH2 [SEQ ID NO 121]	25 nM	25.1 nM	25 nM	25.1 nM	25100 pM	25 nM	25.1 nM
H[Aib]EGS[αMeF]TSDV[αMeS]SK([PEG2′-PEG2′-γGlu-Stearoyl])LEGEAA[αMeK]E[αMeF]IA[αMeF]VV[αMeK]GG-NH2 [SEQ ID NO 116]	26 nM	25.6 nM	26 nM	25.6 nM	9 pM	0.0093 nM	0.00912 nM
